From publication PMC6061780 (Nucleic Acids Research, 2018)

T1: Sc eIF4E (residues T25–L213), His6 tag removed (Saccharomyces cerevisiae, UniProt P07260 25-213)
T1 sequence (looked up): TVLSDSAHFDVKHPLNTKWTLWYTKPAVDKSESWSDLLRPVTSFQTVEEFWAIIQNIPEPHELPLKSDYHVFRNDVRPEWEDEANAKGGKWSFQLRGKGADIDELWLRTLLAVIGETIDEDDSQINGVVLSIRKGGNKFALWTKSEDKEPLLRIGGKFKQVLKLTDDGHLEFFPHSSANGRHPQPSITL

T2: Sc eIF4E Δ34 (residues V35–L213), His6 tag removed (Saccharomyces cerevisiae, UniProt P07260 35-213)
T2 sequence (looked up): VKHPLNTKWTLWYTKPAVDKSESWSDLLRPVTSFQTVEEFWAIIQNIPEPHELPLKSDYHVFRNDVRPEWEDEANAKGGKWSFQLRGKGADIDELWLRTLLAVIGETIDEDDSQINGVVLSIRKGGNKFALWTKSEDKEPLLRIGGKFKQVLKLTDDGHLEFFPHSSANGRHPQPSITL


How the values were obtained:
Assay in all cases: ITC
[1] = target: T1, Sc eIF4E (residues T25–L213), His6 tag …
[2] = target: Sc eIF4G (residues V448–N500; C+L+NC)-GB1 (Saccharomyces cerevisiae, UniProt P39935 448-500)
[3] = target: T2, Sc eIF4E Δ34 (residues V35–L213), His6 …

Kd [1] [nM] | Kd [2] [nM] | Kd [3] [nM] | Binder
1000 ± 100 |  |  | SASYEEDPLISELVRSLPKRKFWRLRMG (domain or fragment, Saccharomyces cerevisiae, UniProt P36041 123-150, looked up) [Sc Eap1p L+NC fragment (residues S123–G150)-GB1]
 | 1020 ± 90 |  | Sc eIF4E II-AA lateral surface mutant, His6 tag removed (ITC) (domain or fragment) GPHMTVLSDSAHFDVKHPLNTKWTLWYTKPAVDKSESWSDLLRPVTSFQTVEEFWAAIQNAPEPHELPLKSDYHVFRNDVRPEWEDEANAKGGKWSFQLRGKGADIDELWLRTLLAVIGETIDEDDSQINGVVLSIRKGGNKFALWTKSEDKEPLLRIGGKFKQVLKLTDDGHLEFFPHSSANGRHPQPSITL
12.9 ± 0.9 |  | 8.8 ± 0.5 | TDPITNYKPMDLQYKTYAYSMNELYHLKPSLA (domain or fragment, Saccharomyces cerevisiae, UniProt P36041 91-122, looked up) [Sc Eap1p (T91–A122; N_(short)+C)-GB1]
8 ± 4 |  |  | KKTAMLNFSSLTDPITNYKPMDLQYKTYAYSMNELYHLKPSLA (domain or fragment, Saccharomyces cerevisiae, UniProt P36041 80-122, looked up) [Sc Eap1p (residues K80–A122; N+C peptide)-GB1]
3400 ± 300 |  |  | GPHMDLQYKTYAYSMNELYHLKPSLA (domain or fragment) [Sc Eap1p canonical motif (C)-GB1]
